Values joined by “and” are separate entries in the source; they are usually repeats but may differ in a detail not shown here. Identical values can stand only once.
B2: major capsid protein (MCP) of human herpesvirus 6B (natural protein)
chain: MENWQATEILPKIEAPLNIFNDIKTYTAEQLFDNLRIYFGDDPSRYNISFEALLGIYCNKIEWINFFTTPIAVAANVIRFNDVSRMTLGKVLFFIQLPRVATGNDVTAPKETTIMVAKHSEKHPINISFDLSAACLEHLENTFKNTVIDQILNINALHTVLRSLKNSADSLERGLIHAFMQTLLRKSPPQFIVLTMNENKVHNKQALSRVQRSNMFQSLKNRLLTSLFFLNRNNNSSYIYRILNDMMESVTESILNDTNNYTSKENIPLDGVLLGPIGSIQKLTNILSQYISTQVVSAPISYGHFIMGKENAVTAIAYRAIMADFTQFTVNAGTEQQDTNNKSEIFDKSRAYADLKLNTLKLGDKLVAFDHLHKVYKNTDVNDPLEQSLQLTFFFPLGIYIPTETGFSTMETRVKLNDTMENNLPTSVFFHNKDQVVQRIDFADILPSVCHPIVHDSTIVERLMKNEPLPTGHRFSQLCQLKITRENPTRILQTLYNLYESRQEVPKNTNVLKNELNVEDFYKPDNPTLPTERHPFFDLTYIQKNRATEVLCTPRIMIGNMPLPLAPISFHEARTNQMLEHAKTNSHNYDFTLKIVTESLTSGSYPELAYVIEILVHGNKHAFMILKQVISQCISYWFNMKHILLFCNSFEMIMLISNHMGDELIPGAAFAHYRNLVSLIRLVKRTISISNINEQLCGEPLVNFANALFDGRLFCPFVHTMPRNDTNAKITADDTPLTQNTVRVRNYEISDVQRMNLIDSSVVFTDNDRPSNENTILSKIFYFCVLPALSNNKACGAGVNVKELVLDLFYTEPFICPDDCFQENPISSDVLMSLIREAMGPGYTVANTSSIAKQLFKSLIYINENTKILEVEVSLDPAQRHGNSVHFQSLQHILYNGLCLISPITTLRRYYQPIPFHRFFSDPGICGTMNADIQVFLNTFPHYQRNDGGFPLPPPLALEFYNWQRTPFSVYSAFCPNSLLSIMTLAAMHSKLSPVAIAIQSKSKIHPGFAATLVRTDNFDVECLLYSSRAATSIILDDPTVTAEAKDIVTTYNFTQHLSFVDMGLGFSSTTATANLKRIKSDMGSKIQNLFSAFPIHAFTNTDINTWIRHHVGIEKPNPSEGEALNIITFGGINKNPPSILLHGQQAICEVILTPVTTNINFFKLPHNPRGRESCMMGTDPHNEEAARKALYDHTQTDSDTFAATTNPWASLPGSLGDILYNTAHREQLCYNPKTYSPNAQFFTESDILKTNKMMYKVINEYCMKSNSCLNSDSEIQYSCSEGTDSFVSRPCQFLQNALPLHCSSNQALLESRSKTGNTQISETHYCNYAIGETIPLQLIIESSI
notes: major capsid protein (MCP) of human herpesvirus 6B, strain Z29; 1345 amino acids long; domains described over a.a; 1-1345; Native protein in the virion capsid; 16 conformers (15 hexon, 1 penton) modelled in each asymmetric unit; also called penton MCP; hexon MCP

Tests used:
[1] = molecular target: the molecule itself; experiment: cryo-EM structure; in situ in HHV-6B (Z29) virions pelleted from SupT1 culture supernatant and resuspended in PBS; icosahedral reconstruction ~5.1 Å, sub-particle reconstructions at the fivefold, threefold and twofold axes at 3.82, 3.77 and 3.77 Å; atomic models of 59 conformers
[2] = molecular target: B2; experiment: as above; conditions: partners not purified

B1: tegument protein pU11 of human herpesvirus 6B (natural protein)
chain: MDLKAQSIPFAWLDRDKVQRLTNFLSNLENLENVDLREHPYVTNSCVVREGEDVDELKTLYNTFILWLMYHYVLSKRKPDYNAIWQDITKLQNVVNEYLKSKGLNKGNFENMFTNKEKFESQFSDIHRALLRLGNSIRWGSNVPIDTPYVNLTAEDSSEIENNLQDAEKNMLWYTVYNINDPWDENGYLVTSINKLVYLGKLFVTLNQSWSKLEKVAMSQIVTTQNHLSGHLRKNENFNAVYSQRVLQTPLTGQRVESFLKIITSDYEIIKSSLESYSASKAFSVPENGPHSLMDFASLDGRMPSDLSLPSISIDTKRPSADLARLKISQPKSLDAPLKTQRRHKFPESDSVDNAGGKILIKKETLGGRDVRATTPVSSVSLMSGVEPLSSLTSTNLDLRDKSHGNYRIGPSGILDFGVKLPAEAQSNTGDVDLLQDKTSIRSPSSGITDVVNGLANLNLRQNKSDVSRPWSKNTAANADVFDPVHRLVSEQTGTPFVLNNSDVAGSEAKLTTHSTETGVSPHNVSLIKDLRDKDGFRKQKKLDLLGSWTKEKNDKAIVHSREVTGDSGDATETVTARDSPVLRKTKHANDIFAGLNKKYARDVSRGGKGNSRDLYSGGNAEKKETSGKFNVDKEMTQNEQEPLPNLMEAARNAGEEQYVQAGLGQRVNKILAEFTNLISLGEKGIQDILHNQSGTELKLPTENKLGRESEEANVERILEVSDPQNLFKNFKLQNDLDSVQSPFRLPNADLSRDLDSVSFKDALDVKLPGNGEREIDLALQKVKAGERETSDFKVGQDETLIPTQLMKVETPEEKDDVIEKMVLRIRQDGETDEETVPGPGVAESLGIAAKDKSVIAS
notes: tegument protein pU11 of human herpesvirus 6B, strain Z29; 858 a.a. long; wild-type full-length protein inside the virion, only a.a; 7-275 (pU11nt) are resolved and modelled; also called pU11nt (the resolved N-terminal one-third, a.a. 7-275); pU11nt-a-1
[1]
  stoichiometry N: 4

## B2
[1]
  stoichiometry N: 5 and 6

B3: smallest capsid protein (SCP) of human herpesvirus 6B, U32 gene product (natural protein)
chain: MTTIRGDDLSNQITQISGSSSKKEEEKKKQQMLTGVLGLQPTMANHPVLGVFLPKYAKQNGGNVDKTAFRLDLIRMLALHRLNTKTGSD
notes: smallest capsid protein (SCP), U32 gene product of human herpesvirus 6B, strain Z29; 89 residues long; the model covers residues 23-83, residues 1-22 are disordered; Native protein in the virion capsid; 16 conformers modelled in each asymmetric unit; also called penton SCP; hexon SCP
[2]
  stoichiometry N: 1

B4: triplex dimer protein (Tri2) of human herpesvirus 6B (natural protein)
chain: METVYCTFDHKLSLSDISTLCKLMNIVIPIPAHHHLIGSGNLGLYPIVSSNKDYVHIRNVLRTMVVTILQKVEGNQLVLRKPMTGQQYAIKNTGPFPWEKGDTLTLIPPLSTHSEEKLLKLGDWELTVPLVVPTAIAAEINIRLLCIGLIAVHREYNEMQTIIDELCSIQYRDVLIKLPDIVNDKQSMYSMKTACISLSMITAMAPDIVRTYIDRLTLEDHSMLLIKCQELLSKRTTLSTQRCGQLHATDIKDELKKIKSVLTMIDQINSLTNEKTYFVVCDVSADNRMATCIYKN
notes: triplex dimer protein (Tri2) of human herpesvirus 6B, strain Z29; domains clamp (a.a. 1-86), trunk (a.a. 87-181 and 276-296), embracing arm (a.a. 182-275); Native protein in the virion capsid; two conformers (Tri2A, Tri2B) of the same protein in each triplex; also called Tri2A; Tri2B
[1]
  stoichiometry N: 2
